Measurements from article PMC4892619.

Assays:
[1] = test system: CsrA-His6 (Campylobacter jejuni 81-176); assay: EMSA; settings: 10 mM Tris-HCl pH 7.5, 10 mM MgCl2, 100 mM KCl, 32.5 ng yeast RNA, 20 mM DTT, 7.5% glycerol, 4 U RNase inhibitor, 10 ul, 30 min at 37 C; 15% native PAGE
[2] = target: T1, CsrA-His6 (Campylobacter jejuni 81-176) (UniProt Q0P9F1); assay: EMSA; settings: 10 mM Tris-HCl pH 7.5, 10 mM MgCl2, 100 mM KCl, 32.5 ng yeast RNA, 20 mM DTT, 7.5% glycerol, 4 U RNase inhibitor, 10 ul, 30 min at 37 C; 15% native PAGE
T1 sequence: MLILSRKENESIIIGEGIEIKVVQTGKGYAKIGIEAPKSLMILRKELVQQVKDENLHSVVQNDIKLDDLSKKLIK

Substance | Kd [1] [nM] | Kd [2] [nM]
flaA mRNA 5' end transcript | 6.53 | 
GGGUAUAAAUUUUUAAAAAAAAGUAACGAUAUAGCAUUUAACAAGCUCAUGGAUGAGUUUGAAAUUAUUUAAAAGGAUUUAAA [flaA mRNA 5' end transcript] |  | 6.53
